The text below walks through data of patent publication US20100015126A1, “Methods of Binding of Cross-Beta Structures By Chaperones” (priority 2006, published 2010).

The target of test [1] is T1, human BiP (Homo sapiens, UniProt P11021).
T1 construct: The human BiP gene except the signal peptide encoding region was obtained from Geneart (Germany); linker […]; made in house; host or cells: HEK 293E cells, transient transfection, PABC674 vector; secreted into the medium
The test can be described thus: Competition ELISA: BiP binding to misfolded proteins under influence of crossbeta binding compounds. The following applies: fixed sub-optimal BiP concentration; for Influence of Congo red on interaction of BiP with misfolded protein: concentration series of Congo red; for Influence of ThS on interaction of BiP with misfolded protein: concentration series of ThS; for Influence of ThT on interaction of BiP with misfolded protein: concentration series of ThT. The protocol:
Binding of chaperones to immobilized (misfolded) protein ligands was determined using an enzyme linked immuno sorbent assay (ELISA) approach. For this purpose 50 μl/well of potential ligands at indicated concentrations or coat buffer only for control and background measurement purposes, were coated overnight at 4° C. or coated for 1 h at room temperature, with motion, in 50 mM NaHCO3 pH 9.6 (coat buffer). In general, ligands were coated at 5 μg/ml, unless stated otherwise. For example, BiP binding peptides 6BB# and oxLDL were coated at 50 μg/ml. Native haemoglobin (Sigma-Aldrich, H7379), albumin, IgIV Gammagard and ovalbumin controls were prepared from lyophilized stocks. The controls were prepared by dissolving lyophilized proteins at 1 mg/ml in PBS upon resuspending by pipetting, followed by a 30 minutes period at the roller device, at room temperature. The protein solutions were centrifuged for 10 minutes at 16,000*g and diluted in coat buffer. After coating the plates were washed at least three times with 50 mM Tris-HCl pH 7.3, 150 mM NaCl, 0.1% v/v Tween20, and blocked with Blocking reagent (Roche Diagnostics, Almere, The Netherlands; 11112589001), for 1 h at room temperature, with motion. Plates were washed three times and incubated in triplicate with indicated chaperone dilution series, at 50 μl/well, for 1 h at room temperature, with constant motion. For HSP90, 5 mM DTT is incorporated in the binding buffer (PBS/0.1% Tween20) to avoid unwanted disulfide bond formation of the HSP90. […] After four wash cycles, secondary antibodies were added to the wells when required, 50 μl/well, for 45′ at room temperature, with motion. RAMPO and SWARPO were used at 3000 times dilution. […] In a second experiment with more immobilized misfolded proteins and controls, the detection of bound HSP90 with the mix of two anti-HSP90 antibodies was achieved by mixing 1:1500 SWARPO with 1:3000 RAMPO. After 5 washes with wash buffer followed by two washes with PBS, binding of antibodies was assessed. Bound anti-FLAG-PO, peroxidase-conjugated rabbit anti-mouse immunoglobulins (RAMPO, P0260, DAKOCytomation, Glostrup, Denmark) or peroxidase-coupled swine anti-rabbit immunoglobulins (SWARPO, P0217, DAKOCytomation) was visualized with tetramethylbenzidine (TMB, #45.01.20,/#45.014.01, Biosource, Nivelles, Belgium). The reaction was stopped after 5 minutes with 1% H2SO4 in H2O. Plates were read at 450 nm. Triplicates were averaged and standard deviations calculated. Background signals obtained with buffer-coated wells were subtracted (binding of primary antibody to empty wells), as well as background signals obtained with ligand-coated wells in which the chaperones were omitted (binding of primary and secondary antibody to coated ligands). Subsequently, sub-optimal concentrations of chaperones for binding to misfolded protein ligands are determined, and these concentrations are used for inhibition studies.
In a subsequent study we analysed whether BiP interacts directly with the crossbeta structure, by performing ELISA binding studies with a fixed sub-optimal concentration of BiP and concentration series of crossbeta binding compounds. The results are depicted in FIGS. 12, 13 and Table 7. Binding of BiP without added crossbeta binding compounds was set to 100%.
On the technique in general: In an ELISA, binding on a coated surface is turned into a signal by an enzyme label.

For test [2], the target named is T1, human BiP. The test can be described thus: ELISA: binding of BiP-FLAG-His to immobilized (misfolded) protein ligands. The note with it: ligands coated at 5 μg/ml; 6BB peptides and oxLDL 50 μg/ml. The protocol: Enzyme Linked Immunosorbent Assay for Testing of Chaperone Binding to Misfolded Proteins
(§1) Binding of chaperones to immobilized (misfolded) protein ligands was determined using an enzyme linked immuno sorbent assay (ELISA) approach. For this purpose 50 μl/well of potential ligands at indicated concentrations or coat buffer only for control and background measurement purposes, were coated overnight at 4° C. or coated for 1 h at room temperature, with motion, in 50 mM NaHCO3 pH 9.6 (coat buffer). In general, ligands were coated at 5 μg/ml, unless stated otherwise. For example, BiP binding peptides 6BB# and oxLDL were coated at 50 μg/ml. Native haemoglobin (Sigma-Aldrich, H7379), albumin, IgIV Gammagard and ovalbumin controls were prepared from lyophilized stocks. The controls were prepared by dissolving lyophilized proteins at 1 mg/ml in PBS upon resuspending by pipetting, followed by a 30 minutes period at the roller device, at room temperature. The protein solutions were centrifuged for 10 minutes at 16,000*g and diluted in coat buffer. After coating the plates were washed at least three times with 50 mM Tris-HCl pH 7.3, 150 mM NaCl, 0.1% v/v Tween20, and blocked with Blocking reagent (Roche Diagnostics, Almere, The Netherlands; 11112589001), for 1 h at room temperature, with motion. Plates were washed three times and incubated in triplicate with indicated chaperone dilution series, at 50 μl/well, for 1 h at room temperature, with constant motion. For HSP90, 5 mM DTT is incorporated in the binding buffer (PBS/0.1% Tween20) to avoid unwanted disulfide bond formation of the HSP90. Plates were washed three times and incubated with anti-FLAG antibody (mouse antibody, M2, peroxidase conjugate; Sigma, A-8592) for BiP-FLAG-His, anti-His-tag antibody (Mouse Monoclonal Antibody, Cat. No. 70796, Novagen [0.2 mg/ml]) for HSP60, a 1:1 mix of 500-fold diluted anti-HSP90beta antibodies (Stressgen, SPA-643 [mouse monoclonal IgM], SPA-646 [rabbit polyclonal]) for HSP90 and an anti-DnaK antibody (Stressgen, 023SPA-880D [mouse monoclonal antibody]) for DnaK. After four wash cycles, secondary antibodies were added to the wells when required, 50 μl/well, for 45′ at room temperature, with motion. RAMPO and SWARPO were used at 3000 times dilution. […] In a second experiment with more immobilized misfolded proteins and controls, the detection of bound HSP90 with the mix of two anti-HSP90 antibodies was achieved by mixing 1:1500 SWARPO with 1:3000 RAMPO. After 5 washes with wash buffer followed by two washes with PBS, binding of antibodies was assessed. Bound anti-FLAG-PO, peroxidase-conjugated rabbit anti-mouse immunoglobulins (RAMPO, P0260, DAKOCytomation, Glostrup, Denmark) or peroxidase-coupled swine anti-rabbit immunoglobulins (SWARPO, P0217, DAKOCytomation) was visualized with tetramethylbenzidine (TMB, #45.01.20,/#45.014.01, Biosource, Nivelles, Belgium). The reaction was stopped after 5 minutes with 1% H2SO4 in H2O. Plates were read at 450 nm. Triplicates were averaged and standard deviations calculated. Background signals obtained with buffer-coated wells were subtracted (binding of primary antibody to empty wells), as well as background signals obtained with ligand-coated wells in which the chaperones were omitted (binding of primary and secondary antibody to coated ligands). Subsequently, sub-optimal concentrations of chaperones for binding to misfolded protein ligands are determined, and these concentrations are used for inhibition studies. […] We have previously identified that a sub-fraction of IgIV molecules has affinity for misfolded proteins comprising crossbeta structure (pending patent application). Moreover, we identified that the sub-fraction of IgIV molecules directly binds to crossbeta structure and/or crossbeta structure induced conformation (not shown; pending patent application). […]

Test [3] addresses T2, Escherichia coli HSP70 family member DnaK (Escherichia coli, UniProt P0A6Y8).
T2 construct: purchased Stressgen (Ann Arbor, Mich., USA) SPP-630
The test can be described thus: ELISA: binding of DnaK to immobilized (misfolded) protein ligands. The protocol: Recombinant Escherichia coli (E. coli) DnaK was purchased from Stressgen (Ann Arbor, Mich., USA; SPP-630). For the binding studies first lot B502468 (100 μg, lot A) and then lot 05240609 (200 μg, lot B) was used.
as §1

Test [4] has as its target T3, human mitochondrial HSP60 (Homo sapiens, UniProt P10809).
T3 construct: Dr. W. van Eden, Utrecht University; host or cells: E. coli
The test can be described thus: ELISA: binding of HSP60 to immobilized (misfolded) protein ligands. Here is the method: Recombinant human HSP60 with N-terminal His-tag was a kind gift of Dr. R. van der Zee and Prof. Dr. W. van Eden (Institute of Infectious Diseases and Immunology, Faculty of Veterinary Medicine, Utrecht University, Utrecht, The Netherlands), and was supplied in lyophilized form. The HSP60 was produced in E. coli and purified using Nickel-Sepharose. The HSP60 was lyophilized from 20-40 mM ammonium-bicarbonate solution, after purification, and stored at −20° C. The construct lacks the mitochondrial signal sequence. […] Before use, the lyophilized protein is dissolved at room temperature at 1 mg/ml in 20-40 mM NH4HCO3, resulting in a pH of 7.0. Aliquots are stored at −20° C. or −80° C. The mitochondrial HSP60 is a functional dimer of heptamers (MW(HSP60 monomer)=˜58 kDa), and is involved in multimer protein assembling and aids in transport of unfolded proteins across membranes. For the binding studies, at two occasions separate HSP60 solutions were prepared originating from the same batch of purified protein, lyophilized in separate Eppendorf cups.
Binding of chaperones to immobilized (misfolded) protein ligands was determined using an enzyme linked immuno sorbent assay (ELISA) approach. For this purpose 50 μl/well of potential ligands at indicated concentrations or coat buffer only for control and background measurement purposes, were coated overnight at 4° C. or coated for 1 h at room temperature, with motion, in 50 mM NaHCO3 pH 9.6 (coat buffer). In general, ligands were coated at 5 μg/ml, unless stated otherwise. For example, BiP binding peptides 6BB# and oxLDL were coated at 50 μg/ml. Native haemoglobin (Sigma-Aldrich, H7379), albumin, IgIV Gammagard and ovalbumin controls were prepared from lyophilized stocks. The controls were prepared by dissolving lyophilized proteins at 1 mg/ml in PBS upon resuspending by pipetting, followed by a 30 minutes period at the roller device, at room temperature. The protein solutions were centrifuged for 10 minutes at 16,000*g and diluted in coat buffer. After coating the plates were washed at least three times with 50 mM Tris-HCl pH 7.3, 150 mM NaCl, 0.1% v/v Tween20, and blocked with Blocking reagent (Roche Diagnostics, Almere, The Netherlands; 11112589001), for 1 h at room temperature, with motion. Plates were washed three times and incubated in triplicate with indicated chaperone dilution series, at 50 μl/well, for 1 h at room temperature, with constant motion. For HSP90, 5 mM DTT is incorporated in the binding buffer (PBS/0.1% Tween20) to avoid unwanted disulfide bond formation of the HSP90. Plates were washed three times and incubated with anti-FLAG antibody (mouse antibody, M2, peroxidase conjugate; Sigma, A-8592) for BiP-FLAG-His, anti-His-tag antibody (Mouse Monoclonal Antibody, Cat. No. 70796, Novagen [0.2 mg/ml]) for HSP60, a 1:1 mix of 500-fold diluted anti-HSP90beta antibodies (Stressgen, SPA-643 [mouse monoclonal IgM], SPA-646 [rabbit polyclonal]) for HSP90 and an anti-DnaK antibody (Stressgen, 023SPA-880D [mouse monoclonal antibody]) for DnaK. After four wash cycles, secondary antibodies were added to the wells when required, 50 μl/well, for 45′ at room temperature, with motion. RAMPO and SWARPO were used at 3000 times dilution. […] In a second experiment with more immobilized misfolded proteins and controls, the detection of bound HSP90 with the mix of two anti-HSP90 antibodies was achieved by mixing 1:1500 SWARPO with 1:3000 RAMPO. After 5 washes with wash buffer followed by two washes with PBS, binding of antibodies was assessed. Bound anti-FLAG-PO, peroxidase-conjugated rabbit anti-mouse immunoglobulins (RAMPO, P0260, DAKOCytomation, Glostrup, Denmark) or peroxidase-coupled swine anti-rabbit immunoglobulins (SWARPO, P0217, DAKOCytomation) was visualized with tetramethylbenzidine (TMB, #45.01.20,/#45.014.01, Biosource, Nivelles, Belgium). The reaction was stopped after 5 minutes with 1% H2SO4 in H2O. Plates were read at 450 nm. […]

T2 sequence (P0A6Y8 whole entry): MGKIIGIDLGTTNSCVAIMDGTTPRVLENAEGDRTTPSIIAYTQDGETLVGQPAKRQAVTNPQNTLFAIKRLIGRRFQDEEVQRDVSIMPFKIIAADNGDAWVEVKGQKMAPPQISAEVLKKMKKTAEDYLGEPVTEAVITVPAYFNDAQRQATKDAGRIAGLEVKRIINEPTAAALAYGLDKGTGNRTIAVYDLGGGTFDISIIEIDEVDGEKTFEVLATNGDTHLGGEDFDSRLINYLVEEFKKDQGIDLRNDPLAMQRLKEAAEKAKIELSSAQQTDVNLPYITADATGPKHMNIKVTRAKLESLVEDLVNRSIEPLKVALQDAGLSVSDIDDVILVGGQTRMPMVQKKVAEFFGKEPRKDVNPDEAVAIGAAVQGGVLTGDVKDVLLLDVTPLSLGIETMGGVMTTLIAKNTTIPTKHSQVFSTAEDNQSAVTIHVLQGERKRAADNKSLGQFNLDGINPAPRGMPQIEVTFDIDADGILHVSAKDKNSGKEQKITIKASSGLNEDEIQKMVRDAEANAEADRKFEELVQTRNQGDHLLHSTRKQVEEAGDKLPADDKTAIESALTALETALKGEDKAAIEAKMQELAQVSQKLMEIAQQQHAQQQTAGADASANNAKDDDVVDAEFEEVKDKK
T1 sequence (P11021 19-654): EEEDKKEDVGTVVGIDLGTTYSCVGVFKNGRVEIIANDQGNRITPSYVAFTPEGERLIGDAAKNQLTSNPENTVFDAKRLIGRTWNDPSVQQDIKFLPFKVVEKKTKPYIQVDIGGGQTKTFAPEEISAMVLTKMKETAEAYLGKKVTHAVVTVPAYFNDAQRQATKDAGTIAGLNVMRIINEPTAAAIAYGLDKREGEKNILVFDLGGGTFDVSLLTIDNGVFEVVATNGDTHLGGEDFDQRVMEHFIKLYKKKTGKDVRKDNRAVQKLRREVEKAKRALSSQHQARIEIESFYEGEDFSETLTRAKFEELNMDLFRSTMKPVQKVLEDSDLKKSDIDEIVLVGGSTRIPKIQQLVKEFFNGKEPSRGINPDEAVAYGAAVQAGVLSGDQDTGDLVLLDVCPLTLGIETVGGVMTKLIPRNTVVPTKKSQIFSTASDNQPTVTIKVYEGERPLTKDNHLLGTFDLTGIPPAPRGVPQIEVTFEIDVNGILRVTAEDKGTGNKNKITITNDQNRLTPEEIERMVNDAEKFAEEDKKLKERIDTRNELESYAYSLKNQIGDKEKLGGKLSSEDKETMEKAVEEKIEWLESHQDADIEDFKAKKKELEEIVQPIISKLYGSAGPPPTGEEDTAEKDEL
T3 sequence (P10809 27-573): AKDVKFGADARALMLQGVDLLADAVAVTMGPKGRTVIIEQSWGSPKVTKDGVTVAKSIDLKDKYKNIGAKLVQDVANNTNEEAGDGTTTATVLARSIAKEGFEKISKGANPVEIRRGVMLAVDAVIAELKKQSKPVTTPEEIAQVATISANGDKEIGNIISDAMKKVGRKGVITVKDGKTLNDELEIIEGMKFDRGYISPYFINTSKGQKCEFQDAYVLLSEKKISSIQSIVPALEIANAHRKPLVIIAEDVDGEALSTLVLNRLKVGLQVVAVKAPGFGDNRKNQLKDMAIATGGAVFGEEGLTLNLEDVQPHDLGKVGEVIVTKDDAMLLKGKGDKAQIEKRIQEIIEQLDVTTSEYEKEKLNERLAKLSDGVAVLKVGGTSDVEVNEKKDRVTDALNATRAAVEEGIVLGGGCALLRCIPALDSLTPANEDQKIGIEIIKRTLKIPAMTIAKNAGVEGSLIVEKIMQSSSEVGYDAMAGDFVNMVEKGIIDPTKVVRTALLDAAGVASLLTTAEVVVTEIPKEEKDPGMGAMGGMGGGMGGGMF

Regarding LFWPFEWI [6BB9], in the test with human BiP [1], the “Influence of Congo red on interaction of BiP with misfolded protein” value is on record as “↓ (a ↓ sign refers to inhibited abolished binding of BiP)”, the “Influence of ThS on interaction of BiP with misfolded protein” value is reported as “↓ (a ↓ sign refers to inhibited abolished binding of BiP)” and the “Influence of ThT on interaction of BiP with misfolded protein” value is “↓ (a ↓ sign refers to inhibited abolished binding of BiP)”. Further, in the test with human BiP [2], the “Binding of concentration series of BiP to coated ligand” value (shortened to “Binding of concentration series of BiP”) is recorded as “has been established”.
As to YVDRFIGW [6BB8], in test [3], the “Binding of concentration series of DnaK to coated ligand” value (from here on “Binding of concentration series of DnaK”) is listed as “did not bind”. Also, the “Binding of concentration series of BiP” value at human BiP [2] is “no BiP binding was observed”.
Turning to “fibrin: fibrin immobilized in wells from fibrinogen and factor IIa”, the “Binding of concentration series of HSP60 to coated ligand” value in test [4] is given as “has been established”. For the same substance, the “Binding of concentration series of DnaK” value in test [3] is “has been established”. The “Binding of concentration series of BiP” value with human BiP [2] is “has been established”.
FWGLWPWE [6BB11]: in test [3], the “Binding of concentration series of DnaK” value is “did not bind”. In the test with human BiP [1], the “Influence of Congo red on interaction of BiP with misfolded protein” value was “↓ (a ↓ sign refers to inhibited abolished binding of BiP)”, the “Influence of ThS on interaction of BiP with misfolded protein” value was “↓ (a ↓ sign refers to inhibited abolished binding of BiP)” and the “Influence of ThT on interaction of BiP with misfolded protein” value is on record as “↓ (a ↓ sign refers to inhibited abolished binding of BiP)”. Further, the “Binding of concentration series of BiP” value with human BiP [2] is recorded as “has been established”.
Turning to RRRAA [6BB13], in test [3], the “Binding of concentration series of DnaK” value is “did not bind”. Moreover, the “Binding of concentration series of BiP” value with human BiP [2] was “no BiP binding was observed”.
